“Also recorded” adds a separate entry of the source.
What was measured:
histone H4 [1] = target: T1, histone H4 (Homo sapiens, UniProt P62805); test: Dose-dependent precipitate formation (supernatant after centrifugation); type: binding; settings: PTX3 0, 12.5, 25, 50 μg/mL; histone H4 50 μg/mL
Protocol: (§1) Full-length PTX3 at each concentration (0, 12.5, 25, 50 μg/mL) was mixed with Calf Thymus Histones (50 μg/mL) or histone H4 (50 μg/mL), and the mixture was centrifuged. The obtained supernatant was subjected to immunoblotting using PPZ-1228 or SYPRO Ruby staining.

Calf Thymus Histones = test: as above; type: binding; settings: PTX3 0, 12.5, 25, 50 μg/mL; histones 50 μg/mL
Protocol: as §1

histone H4 [2] = target: T1, histone H4; test: PTX3-histone aggregation, UV-visible absorption spectrum (310 nm); type: binding; design: purchased NEB; settings: PTX3 at various concentrations mixed with histone H4
Protocol: 0.1 mg/mL human histone H4 was mixed with equal volume of various concentrations of Myc-tagged full-length PTX3, and UV-visible absorption spectrum was measured. A graph of absorbance at 310 nm is shown at the top.
Full-length PTX3 at each concentration was mixed with 50 μg/mL histone H4, and UV-visible absorption spectrum (wavelength 310 nm) was measured.

histone H4 [3] = target: T1, histone H4; test: ELISA binding assay; design: purchased NEB; settings: immobilized recombinant histone, absorbance at 450 nm
Protocol: (§2) Recombinant human histone (NEB) was adjusted to a concentration of 1 μg/mL in TBS, added to a 96 well ELISA plate, and immobilized at 4° C. overnight. The solution was discarded, a blocking buffer (TBS, 0.1% Triton-X100, 1% BSA) was added, and the plate was incubated at room temperature for 2 hr. The plate was washed four times with a wash buffer (TBS, 0.1% Triton-X100), recombinant PTX3 diluted to various concentrations with the blocking buffer was added to each well, and reacted at room temperature for 1 hr. After washing four times with the wash buffer, HRP-labeled antibody diluted with the blocking buffer was added, and reacted at room temperature for 1 hr. After washing four times with the wash buffer, TMB solution was added to carry out a color development reaction for 30 min, and the absorbance at 450 nm was measured. Assay was performed using all the buffers containing 4 mM CaCl2 or 4 mM EDTA.
(§3) The binding level between immobilized each recombinant histone and tag-free recombinant human PTX3 (rhPTX3) was measured by binding assay (ELISA). For the detection, HRP-labeled anti-PTX3 monoclonal antibody (PPZ1228) was used. ELISA was performed with duplicate wells for each point, and means and standard deviations were calculated from three independent experiments.
as §3, with “a tagged” for “tag-free recombinant”, “fragment” for “(rhPTX3)”, “For” for “For the”, “anti-His (6×His)” for “anti-PTX3 monoclonal”, “antibody” for “antibody (PPZ1228)”

[4] = test system: each recombinant histone on HUVEC; test: Cytotoxic assay: suppression of histone cytotoxicity on HUVEC; type: cell-based, human; settings: 1 hr culture, PI staining, FACS
Protocol: (§4) Normal human umbilical vein endothelial cells (HUVECs) were cultured in EGM2 medium (Clonetics). The cells after culture were washed with PBS, added with Opti-MEM medium containing an product of incubation of activated protein C (APC), PTX3, C reactive protein (CRP) or Serum amyloid P component (SAP) with histone for 1 hr, and the cells were further cultured for 1 hr. Propidium iodide (PI) was added to the medium after culture at a final concentration of 10 μg/mL, and the cells were stained for 10 min. The cells were washed with PBS, detached and analyzed by flow cytometry.
(§5) Using each recombinant histone instead of Calf Thymus Histones, a suppressive effect of full-length PTX3 or the N-terminal domain of PTX3 on histone cytotoxicity was studied in the same manner.

[5] = test system: mice intraperitoneally administered with LPS; test: LPS-administered mouse; type: in vivo
Protocol: At 0, 6 and 24 hr from the LPS administration, heparin plasma was collected, and the concentrations of mouse IL-6 and mouse VEGF were measured using ELISA kit (R&D).
The survival rate of the mice intraperitoneally administered with LPS at a concentration of 16 mg/kg is shown. The N-terminal domain of PTX3 (5 mg/kg) or control buffer was intraperitoneally administered 2 hr prior to LPS administration. In addition, the time-course changes in the plasma IL-6 and VEGF levels of the LPS-administrated mice treated with the N-terminal domain of PTX3 were measured by ELISA.

histone H4 [6] = target: T1, histone H4; test: CD spectrum of histone H4-PTX3 complex
Protocol: The CD spectrum of the histone H4-PTX3 complex was measured. The N-terminal domain of PTX3 (25 μg/mL) and histone H4 (5 μg/mL) were each independently measured, and further, the histone H4-PTX3 mixture was measured (FIG. 6D).

histone H2B = target: T2, histone H2B (Homo sapiens, UniProt Q16778); test: ELISA binding assay; settings: immobilized recombinant histone
T2 construct: purchased NEB
Protocol: as §2
as §3, with “a tagged” for “tag-free recombinant”, “fragment” for “(rhPTX3)”, “For” for “For the”, “anti-His (6×His)” for “anti-PTX3 monoclonal”, “antibody” for “antibody (PPZ1228)”

histone H4 on HUVEC = test: Cytotoxic assay: suppression of histone cytotoxicity on HUVEC; type: cell-based, human; settings: 1 hr culture, PI staining, FACS
Protocol: as §4, §5
Lastly, capacity of suppressing the cytotoxic activity of histone was confirmed. Since this experiment requires a certain amount of protein and an endotoxin-elimination as treatment, a protein was expressed and purified at a 500 mL culture scale, and subjected to an endotoxin-elimination treatment (FIG. 18). In the case of PTX3 N-terminal domain, about 10 mg was obtained at a 500 mL culture scale, and a loss by the endotoxin-elimination treatment was scarcely observed. […] A capacity of fragment proteins obtained at a 500 mL scale on HUVEC to suppress histone cytotoxicity was studied. […]

[7] = test system: mouse subjected to cecal ligation and puncture (CLP); test: Cecal ligation and puncture (CLP) mouse; type: in vivo; settings: 5 mg/kg with gentamicin 5 mg/kg, 4 hr after CLP, versus gentamicin alone
Protocol: For cecal ligation and puncture (CLP) treatment, male C57BL/6 mouse was anesthetized, laparotomy was performed, and cecum was exposed and ligated. A hole is made with an injection needle at the middle between the ligated site and cecum peripheral site, and the abdomen is closed. Four hours from the CLP treatment, the N-terminal domain of PTX3 (5 mg/kg) and gentamicin (5 mg/kg), or gentamicin (5 mg/kg) alone were(was) administered to the mouse.
Mouse was subjected to cecal ligation and puncture (CLP) treatment and, 4 hr later from the treatment, the N-terminal domain of PTX3 (5 mg/kg) and gentamicin (5 mg/kg), or gentamicin (5 mg/kg) alone were(was) administered to the mouse.

[8] = LPS-administrated mice, 5 mg/kg, ELISA

| Substance | precipitate formation with histone H4 (histone H4 [1]) | precipitate formation with Calf Thymus Histones (Calf Thymus Histones) | aggregation with histone H4, UV-visible absorption spectrum (histone H4 [2]) | binding to histone H4 (binding assay) (histone H4 [3]) | suppression of toxic activity of each recombinant histone on HUVEC [4] | inflammatory reaction caused by LPS administration (biochemical study of blood) ([5]; 5 mg/kg intraperitoneally 2 hr prior to LPS 16 mg/kg) | mortality due to LPS administration ([5]; 5 mg/kg intraperitoneally 2 hr prior to LPS 16 mg/kg, C57BL/6 mice) | plasma IL-6 level [5, 8] | plasma VEGF level [5, 8] | CD spectrum, mixed with histone H4 (histone H4 [6]; 25 μg/mL with histone H4 5 μg/mL) | CD spectrum, alone (histone H4 [6]; 25 μg/mL, measured independently) | bindability to histone H2B (binding assay) (histone H2B) | suppression of toxic activity of histone H4 on HUVEC (histone H4 on HUVEC) | mortality due to the CLP treatment [7] | binding to histone H4 (binding assay) (histone H4 [3]; listed as N-terminal domain) |
| --- | --- | --- | --- | --- | --- | --- | --- | --- | --- | --- | --- | --- | --- | --- | --- |
| full-length PTX3: full-length human pentraxin 3 (1-381 amino acids, SEQ ID NO: 2), used tag-free or Myc- and His-tagged | precipitated as an insoluble product | precipitated as an insoluble product | dose-dependent spectrum | strong binding affinity | suppressed |  |  |  |  |  |  |  |  |  |  |
| N-terminal domain of PTX3: N-terminal domain human PTX3 (18-178 amino acids, SEQ ID NO: 3), tagged, expressed in CHO cells or Escherichia coli |  |  |  | equivalent to that of the full-length PTX3 |  | suppressed | significantly improved mortality | suppressed | suppressed | did not afford a spectrum pattern showing a general secondary structure | a spectrum pattern having α-helix in the secondary structure | lower than that of the full-length PTX3 | suppress; also recorded: suppressed | significantly improved | strong bindability |
